{"source": "paper PMC10889901", "about": "“Deciphering the structure of a multi-drug resistant Acinetobacter baumannii short-chain dehydrogenase reductase” (PLOS ONE, 2024)", "proteins": {"B1": {"name": "Acinetobacter baumannii short-chain dehydrogenase reductase (enzyme)", "chain": "SNAMKLDLQNKIAVVSGSTSGIGLGIAKGLASAGATVVVVGRKQAGVDEAIAHIRQSVPEASLRGVDADLTTEQGAAALFAAEPKADILVNNLGIFNDEDFFSVPDEEWMRFYQVNVLSGVRLARHYAPSMVEQGWGRIIFISSESGVAIPGDMINYGVTKSANLAVSHGLAKRLAGTGVTVNAVLPGPTFTDGLENMLADAAAKAGRSTRDQADEFVKVLRPSSIIQRAAEVDEVANMVVYIASPLSSATSGAALRVDGGVVDTLV", "notes": "residues of the vector printed after the TEV cleavage site (ENLYFQ/SNA), left on the protein after the tag is removed; short-chain dehydrogenase reductase (SDR) of Acinetobacter baumannii; Vector pMCSG21; one protomer in the asymmetric unit, the tetramer comes from crystal symmetry (PISA); also called SDR; SDR enzyme; source: E. coli BL21(DE3) pLysS, purified (HisTrap, TEV cleavage, Superdex …)"}}, "biological_target": "the molecule itself", "experiment": "crystal structure; hanging-drop vapour diffusion, 23°C, 0.2 M lithium sulphate monohydrate, 0.1 M TRIS hydrochloride pH 8.5, 30% PEG 8,000; single protomer in the asymmetric unit, tetramer found by PISA analysis of the crystal"}
{"protein": "B1", "values": [{"measurement": "stoichiometry N", "value": 4}]}
